Measured values taken from article PMC8050300, “The role of S-nitrosylation of PFKM in regulation of glycolysis in ovarian cancer cells” (Cell Death & Disease, 2021).
Where “and” joins values, the source holds several entries; their conditions need not be identical. Equal entries are not always repeated.

B1: Phosphofructokinase (PFKM), endogenous (enzyme, human (endogenous in SKOV3 and OVCAR3), UniProt P08237-1 1-780, looked up)
chain: MTHEEHHAAKTLGIGKAIAVLTSGGDAQGMNAAVRAVVRVGIFTGARVFFVHEGYQGLVDGGDHIKEATWESVSMMLQLGGTVIGSARCKDFREREGRLRAAYNLVKRGITNLCVIGGDGSLTGADTFRSEWSDLLSDLQKAGKITDEEATKSSYLNIVGLVGSIDNDFCGTDMTIGTDSALHRIMEIVDAITTTAQSHQRTFVLEVMGRHCGYLALVTSLSCGADWVFIPECPPDDDWEEHLCRRLSETRTRGSRLNIIIVAEGAIDKNGKPITSEDIKNLVVKRLGYDTRVTVLGHVQRGGTPSAFDRILGSRMGVEAVMALLEGTPDTPACVVSLSGNQAVRLPLMECVQVTKDVTKAMDEKKFDEALKLRGRSFMNNWEVYKLLAHVRPPVSKSGSHTVAVMNVGAPAAGMNAAVRSTVRIGLIQGNRVLVVHDGFEGLAKGQIEEAGWSYVGGWTGQGGSKLGTKRTLPKKSFEQISANITKFNIQGLVIIGGFEAYTGGLELMEGRKQFDELCIPFVVIPATVSNNVPGSDFSVGADTALNTICTTCDRIKQSAAGTKRRVFIIETMGGYCGYLATMAGLAAGADAAYIFEEPFTIRDLQANVEHLVQKMKTTVKRGLVLRNEKCNENYTTDFIFNLYSEEGKGIFDSRKNVLGHMQQGGSPTPFDRNFATKMGAKAMNWMSGKIKESYRNGRIFANTPDSGCVLGMRKRALVFQPVAELKDQTDFEHRIPKEQWWLKLRPILKILAKYEIDLDTSDHAHLEHITRKRSGEAAV
notes: PFKM, muscle isoform of phosphofructokinase 1, human, endogenous in ovarian cancer cells; also called PFK1 (M isoform); source: endogenous, SKOV3 (control, OE-NOS1) and OVCAR3 cell lysate
B2: Flag-tagged WT human PFK1 (M isoform) (enzyme, UniProt P08237-1 1-780, looked up)
chain: B1 chain
notes: human PFK1 (M isoform, PFKM) cDNA (ATCC, NCBI NP_000280.1) in the expression vector PCDNA3.1; the vector section is headed 'for ovarian cancer cells expression'; also called Flag-PFKM; Flag-PFKM-WT; source: SKOV3-PFKM-KO cells, transfected, in lysate

Biological target: the molecule itself
Assay: non-reducing SDS-PAGE with western blot; cell extracts separated by non-reducing SDS-PAGE, blot for PFKM tetramer, dimer and monomer; SKOV3 control and OE-NOS1 cells, SKOV3 and OVCAR3 cells with GSNO (1 mM, 30 min) or PBS, SKOV3-PFKM-KO cells (with or without OE-NOS1) reconstituted with Flag-PFKM-WT or C351S

Protein | stoichiometry N
B1 | 4 and 2
B2 | 4 and 2
